Experiment [1] deals with Lhcb1,2 (major components of LHCII trimers). As to the kind of experiment: native gel or EMSA; BN-PAGE of purified LHCII trimers (3 μg of Chl) solubilized in 0.3, 0.6 and 1% α-DDM. On the technique in general: Mobility shift assays separate free from complexed probe on a gel.
The target is the same in experiment [2]. Kind of experiment: native gel or EMSA; BN-PAGE (4-12.5%) followed by Tricine-SDS PAGE (2D-PAGE), Coomassie; isolated thylakoids, 8 μg Chl, 0.5 mg/ml Chl in 25 mM BisTris/HCl pH 7.0, 20% glycerol, solubilized with 1% α-DDM (0.6 and 1.5% as controls); plants grown under GL200, GL600, GL1800 or shifted 0.5, 2, 6 h to GL1800.
Experiment [3] addresses Photosystem II core (C) (Arabidopsis thaliana (endogenous in leaf thylakoids)) (UniProt P83755). Described as above.

In general, stoichiometry N refers to a count of units in the complex or per binding partner. In the case of “Lhcb1,2 (major components of LHCII trimers)”, the stoichiometry N in experiment [1] and in experiment [2] was 3 in each case.
On to “Photosystem II core (C) (from UniProt P83755 1-344; P56761 1-353; P56777 1-508; P56778 15-473; P23321 86-332) (complex)”, for which the stoichiometry N in experiment [3] was found to be 2.

The record behind these values is article PMC4756287.
